Measurements from patent US11332512B2, “Peptides and combination of peptides for use in immunotherapy against various tumors” (Immatics Biotechnologies GmbH, priority 2015, dated 2022).

Tests used:
CD8+ T cells = assay: In vitro immunogenicity: T-cell priming with aAPCs loaded with peptide/MHC and anti-CD28, pMHC multimer readout; format: cell-based, human; conditions: for Wells positive [%]: percentage of positive wells among evaluable, HLA-A*02 restricted peptides
Description: In order to obtain information regarding the immunogenicity of the TUMAPs of the present invention, the inventors performed investigations using an in vitro T-cell priming assay based on repeated stimulations of CD8+ T cells with artificial antigen presenting cells (aAPCs) loaded with peptide/MHC complexes and anti-CD28 antibody.
In order to perform in vitro stimulations by artificial antigen presenting cells loaded with peptide-MHC complex (pMHC) and anti-CD28 antibody, the inventors first isolated CD8+ T cells from fresh HLA-A*02 leukapheresis products via positive selection using CD8 microbeads (Miltenyi Biotec, Bergisch-Gladbach, Germany) of healthy donors obtained from the University clinics Mannheim, Germany, after informed consent. PBMCs and isolated CD8+ lymphocytes were incubated in T-cell medium (TCM) until use consisting of RPMI-Glutamax (Invitrogen, Karlsruhe, Germany) supplemented with 10% heat inactivated human AB serum (PAN-Biotech, Aidenbach, Germany), 100 U/ml Penicillin/100 μg/ml Streptomycin (Cambrex, Cologne, Germany), 1 mM sodium pyruvate (CC Pro, Oberdorla, Germany), 20 μg/ml Gentamycin (Cambrex). 2.5 ng/ml IL-7 (PromoCell, Heidelberg, Germany) and 10 U/ml IL-2 (Novartis Pharma, Nürnberg, Germany) were also added to the TCM at this step. Generation of pMHC/anti-CD28 coated beads, T-cell stimulations and readout was performed in a highly defined in vitro system using four different pMHC molecules per stimulation condition and 8 different pMHC molecules per readout condition.
The purified co-stimulatory mouse IgG2a anti human CD28 Ab 9.3 (Jung et al., 1987) was chemically biotinylated using Sulfo-N-hydroxysuccinimidobiotin as recommended by the manufacturer (Perbio, Bonn, Germany). Beads used were 5.6 μm diameter streptavidin coated polystyrene particles (Bangs Laboratories, Illinois, USA).
pMHC used for positive and negative control stimulations were A*0201/MLA-001 (peptide […] (SEQ ID NO. 289) from modified Melan-A/MART-1) and A*0201/DDX5-001 ([…] from DDX5, SEQ ID NO. 290), respectively.
800.000 beads/200 μl were coated in 96-well plates in the presence of 4×12.5 ng different biotin-pMHC, washed and 600 ng biotin anti-CD28 were added subsequently in a volume of 200 μl. Stimulations were initiated in 96-well plates by co-incubating 1×10^6 CD8+ T cells with 2×10^5 washed coated beads in 200 μl TCM supplemented with 5 ng/ml IL-12 (PromoCell) for 3 days at 37° C. Half of the medium was then exchanged by fresh TCM supplemented with 80 U/ml IL-2 and incubating was continued for 4 days at 37° C. This stimulation cycle was performed for a total of three times. For the pMHC multimer readout using 8 different pMHC molecules per condition, a two-dimensional combinatorial coding approach was used as previously described (Andersen et al., 2012) with minor modifications encompassing coupling to 5 different fluorochromes. Finally, multimeric analyses were performed by staining the cells with Live/dead near IR dye (Invitrogen, Karlsruhe, Germany), CD8-FITC antibody clone SK1 (BD, Heidelberg, Germany) and fluorescent pMHC multimers. For analysis, a BD LSRII SORP cytometer equipped with appropriate lasers and filters was used. Peptide specific cells were calculated as percentage of total CD8+ cells. Evaluation of multimeric analysis was done using the FlowJo software (Tree Star, Oregon, USA). In vitro priming of specific multimer+CD8+ lymphocytes was detected by comparing to negative control stimulations.

HLA-A*02:01 = HLA-A*02:01 (Homo sapiens, UniProt P04439, D140Y/D185E/D98H/E176V/E277Q/G131W/G231S/I119V/I121R/I166T/I218V/L300P/L318F/N151K/N90K/P208A/P217A/Q86G/Q94H/R138H/R169H/T345S); assay: MHC binding assay: UV-ligand exchange with beta2m ELISA (peptide exchange yield); conditions: binding to HLA-A*02:01, β2m ELISA
Description: Candidate peptides for T cell based therapies according to the present invention were further tested for their MHC binding capacity (affinity). The individual peptide-MHC complexes were produced by UV-ligand exchange, where a UV-sensitive peptide is cleaved upon UV-irradiation, and exchanged with the peptide of interest as analyzed. Only peptide candidates that can effectively bind and stabilize the peptide-receptive MHC molecules prevent dissociation of the MHC complexes. To determine the yield of the exchange reaction, an ELISA was performed based on the detection of the light chain (β2m) of stabilized MHC complexes. The assay was performed as generally described in Rodenko et al. (Rodenko et al., 2006).
96 well MAXISorp plates (NUNC) were coated over night with 2 ug/ml streptavidin in PBS at room temperature, washed 4× and blocked for 1 h at 37° C. in 2% BSA containing blocking buffer. Refolded HLA-A*02:01/MLA-001 monomers served as standards, covering the range of 15-500 ng/ml. Peptide-MHC monomers of the UV-exchange reaction were diluted 100 fold in blocking buffer. Samples were incubated for 1 h at 37° C., washed four times, incubated with 2 ug/ml HRP conjugated anti-β2m for 1 h at 37° C., washed again and detected with TMB solution that is stopped with […]. Absorption was measured at 450 nm. Candidate peptides that show a high exchange yield (preferably higher than 50%, most preferred higher than 75%) are generally preferred for a generation and production of antibodies or fragments thereof, and/or T cell receptors or fragments thereof, as they show sufficient avidity to the MHC molecules and prevent dissociation of the MHC complexes.

Peptide exchange (MHC class I binding score, peptide exchange yield) (HLA-A*02:01)	Substance	Wells positive [%] (CD8+ T cells)	other results
+++ (= ≥50% = +++)	9 (SLITGQDLLSV; listed as Homo sapiens) [compound 9]	+ (<20% = +)	
+++ (= ≥50% = +++)	77 (ALYGNVQQV; listed as Homo sapiens) [compound 77]	+ (<20% = +)	
	264 (TLHDQVHLL; listed as Homo sapiens) [compound 264]	+ (<20% = +)	
+++ (= ≥50% = +++)	242 (KLQEEIPVL; listed as Homo sapiens) [compound 242]	+ (<20% = +)	
+++ (= ≥50% = +++)	263 (SIIEYLPTL; listed as Homo sapiens) [compound 263]	+ (<20% = +)	
+++ (= ≥50% = +++)	102 (GLYPVTLVGV; listed as Homo sapiens) [compound 102]	+ (<20% = +)	
	17 (GLLPSAESIKL; listed as Homo sapiens) [compound 17]	+ (<20% = +)	
+++ (= ≥50% = +++)	233 (SLFESLEYL; listed as Homo sapiens) [compound 233]	+ (<20% = +)	
	121 (ALYVQAPTV; listed as Homo sapiens) [compound 121]	+ (<20% = +)	
	287 (KIQEILTQV; listed as Homo sapiens) [compound 287]		wells (CD8+ T cells; percentage of positive wells, in vitro priming of CD8+ T cells of healthy HLA-A*02 donors): + (<20% = +)
	254 (ALGDKFLLRV; listed as Homo sapiens) [compound 254]	+ (<20% = +)	
+++ (= ≥50% = +++)	4 (VLFGELPAL; listed as Homo sapiens) [compound 4]	+ (<20% = +)	
+++ (= ≥50% = +++)	257 (KLIDHQGLYL; listed as Homo sapiens) [compound 257]	+ (<20% = +)	
+++ (= ≥50% = +++)	34 (TLNTLDINL; listed as Homo sapiens) [compound 34]	++++ (> = 70% = ++++)	
+++ (= ≥50% = +++)	39 (YLEDGFAYV; listed as Homo sapiens) [compound 39]	++++ (> = 70% = ++++)	
	35 (VIIKGLEEI; listed as Homo sapiens) [compound 35]	+ (<20% = +)	
+++ (= ≥50% = +++)	255 (FLMKNSDLYGA; listed as Homo sapiens) [compound 255]	+ (<20% = +)	
	288 (SLYKGLLSV; listed as Homo sapiens) [compound 288]		donors (CD8+ T cells; percentage of positive donors, in vitro priming of CD8+ T cells of healthy HLA-A*02 donors): ++++ (> = 70% = ++++)
+++ (= ≥50% = +++)	14 (YTFSGDVQL; listed as Homo sapiens) [compound 14]	+ (<20% = +)	
+++ (= ≥50% = +++)	267 (YLLDMPLWYL; listed as Homo sapiens) [compound 267]	+ (<20% = +)	
+++ (= ≥50% = +++)	101 (SLLEVNEASSV; listed as Homo sapiens) [compound 101]	+ (<20% = +)	

Peptide exchange (MHC class I binding score, peptide exchange yield) (HLA-A*02:01)	Substance	Wells positive [%] (CD8+ T cells)	other results
+++ (= ≥50% = +++)	26 (VLDGKVAVV; listed as Homo sapiens) [compound 26]		
+++ (= ≥50% = +++)	224 (LLFDWSGTGRADA; listed as Homo sapiens) [compound 224]		
+++ (= ≥50% = +++)	97 (KLFEKSTGL; listed as Homo sapiens) [compound 97]	+ (<20% = +)	
+++ (= ≥50% = +++)	47 (GLNGFNVLL; listed as Homo sapiens) [compound 47]		
+++ (= ≥50% = +++)	175 (SLLDLVQSL; listed as Homo sapiens) [compound 175]		
+++ (= ≥50% = +++)	158 (YLDPLWHQL; listed as Homo sapiens) [compound 158]		
+++ (= ≥50% = +++)	207 (KLFETVEEL; listed as Homo sapiens) [compound 207]		
+++ (= ≥50% = +++)	132 (ALLNNVIEV; listed as Homo sapiens) [compound 132]		
+++ (= ≥50% = +++)	283 (ALSELLQQV; listed as Homo sapiens) [compound 283]		
	157 (ILQDGQFLV; listed as Homo sapiens) [compound 157]	+ (<20% = +)	
+++ (= ≥50% = +++)	139 (IILENIQSL; listed as Homo sapiens) [compound 139]		
+++ (= ≥50% = +++)	76 (FTAEFLEKV; listed as Homo sapiens) [compound 76]		
+++ (= ≥50% = +++)	217 (LLWPSSVPA; listed as Homo sapiens) [compound 217]		
+++ (= ≥50% = +++)	167 (LVVDEGSLVSV; listed as Homo sapiens) [compound 167]		
	66 (AMFPDTIPRV; listed as Homo sapiens) [compound 66]	+ (<20% = +)	
+++ (= ≥50% = +++)	48 (KISDFGLATV; listed as Homo sapiens) [compound 48]		
+++ (= ≥50% = +++)	24 (KVWSDVTPL; listed as Homo sapiens) [compound 24]		
+++ (= ≥50% = +++)	168 (VIFEGEPMYL; listed as Homo sapiens) [compound 168]		
	29 (KMISAIPTL; listed as Homo sapiens) [compound 29]	+ (<20% = +)	
+++ (= ≥50% = +++)	231 (LLDDIFIRL; listed as Homo sapiens) [compound 231]		
